The values that follow are results of earlier work, collected in publication PMC8698604.

For data set [1], the target named is plasminogen (Homo sapiens) (UniProt P00747). The experiment in a line: fluorescence.
Data set [2] shares this target.
For data set [3], the target named is t-PA (Homo sapiens) (UniProt P00750).
The target of data set [4] is plasmin (Homo sapiens) (UniProt P00747).
For data set [5] the target is unchanged. This is another data set of the same source.
The target is the same in data set [6]. This is another data set of the same source.
Data set [7] has as its target plasminogen (Homo sapiens) (UniProt P00747). This is another data set of the same source.
The target in data set [8] is t-PA (Homo sapiens) (UniProt P00750). The source holds these as a separate data set.
The target of data set [9] is fibrin (Homo sapiens) (UniProt P02671).
Data set [10] shares this target. This is another data set of the same source.

Read-outs that look alike come from different tables or passages of the source.

Sequence of UniProt P00750 (P00750 36-562): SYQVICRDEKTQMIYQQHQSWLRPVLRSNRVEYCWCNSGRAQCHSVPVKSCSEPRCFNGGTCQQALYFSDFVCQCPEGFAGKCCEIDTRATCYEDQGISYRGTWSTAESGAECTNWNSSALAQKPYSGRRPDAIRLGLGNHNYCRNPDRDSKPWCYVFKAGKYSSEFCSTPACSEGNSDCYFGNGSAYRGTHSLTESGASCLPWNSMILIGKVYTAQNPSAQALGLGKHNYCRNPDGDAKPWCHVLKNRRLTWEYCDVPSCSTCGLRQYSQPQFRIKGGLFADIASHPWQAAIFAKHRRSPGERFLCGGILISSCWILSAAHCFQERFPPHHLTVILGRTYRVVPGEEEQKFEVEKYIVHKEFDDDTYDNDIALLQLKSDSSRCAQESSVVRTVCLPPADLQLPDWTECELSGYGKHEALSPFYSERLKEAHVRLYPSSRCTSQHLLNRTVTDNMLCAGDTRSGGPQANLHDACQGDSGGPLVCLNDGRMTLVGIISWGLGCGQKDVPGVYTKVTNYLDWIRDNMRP

On to “AIIt (ANXA2/S100A10) (from UniProt P07355)”, for which the Kd in [1] was 1000 nM; in data set [2], 110 nM; in [3], 680 nM; in data set [4], 75 nM.

For ANXA2 (from UniProt P07355), the Kd in data set [5] is 780 nM.

As for S100A10 (from UniProt P60903), the dissociation constant (Kd) is 360 nM in data set [6], 1810 nM in data set [7] and 450 nM in data set [8].

For the substance plasminogen (from UniProt P00747), the Kd is 30000 nM in [9] and 300 nM in data set [10].
